# Laboratory results taken from patent US20210169936A1 (AFFIMED, published 2021).
# Columns and labels:
# [1] = target: human CD16B(NA1) ECD, mature form (without propeptide), fused to monomeric Fc (human) (UniProt O75015); assay: ELISA, coated antigen-mFc
# [2] = target: human CD16A(48R, 158V) ECD fused to monomeric mFc.67 (human) (UniProt P08637); assay: ELISA, coated antigen-mFc
# [3] = target: T1, CD16A on primary human NK cells (human, UniProt P08637); assay: flow cytometry on primary human NK cells at 37 °C, with 10 mg/mL polyclonal human IgG; anti-His mAb and FITC goat anti-mouse IgG
# T1 construct: full length, on the cell surface; also called FcgRIIIA on enriched human NK cells
# [4] = target: Human CD16A^(48R, 158V) fused to IgG Fc (human) (UniProt P08637); assay: ELISA, coated antigen-IgG Fc
# [5] = target: Human CD16A^(48R, 158F) fused to IgG Fc (human) (UniProt P08637); assay: ELISA, coated antigen-IgG Fc
# [6] = target: Cynomolgus CD16A fused to IgG Fc (cynomolgus; human) (UniProt Q8SPW2); assay: ELISA, coated antigen-IgG Fc
# [7] = target: T1, CD16A on primary human NK cells; assay: flow cytometry on primary human NK cells at 37 °C, without IgG; anti-His mAb and FITC goat anti-mouse IgG
# [8] = target: T2, mature ECD of CD16B(NA1) expressed on the CHO cell surface (human, UniProt O75015 17-200); assay: flow cytometry, MFI in cell binding to recombinant CHO cells; antigen EGFRTM anchored
# T2 construct: mature; not shown: membrane anchor: transmembrane domain of human EGFR or GPI anchor
# [9] = target: T3, huCD16A (48R,158V), EGFRTM anchored (human, UniProt P08637;P00533); assay: as above
# T3 construct: extracellular domain;transmembrane domain; Expressed on recombinant CHO cells; one member of the group m39
# [10] = target: T4, propeptide-containing ECD of CD16B(NA1) expressed on the CHO cell surface (human, UniProt O75015 17-208); assay: as above
# T4 construct: extracellular domain; not shown: membrane anchor: transmembrane domain of human EGFR or GPI anchor
# [11] = target: human CD16B ECD mutant H140Y fused to monomeric mFc.67 (human) (UniProt O75015); assay: ELISA, coated antigen-mFc
# [12] = target: human CD16B ECD mutant H140Y fused to monomeric mFc.67 (human) (UniProt O75015); assay: ELISA, coated antigen-mFc, Protein L-HRP
# [13] = target: human CD16A(48R, 158V) ECD fused to monomeric mFc.67 (human) (UniProt P08637); assay: ELISA, coated antigen-mFc, Protein L-HRP
# [14] = target: T5, recombinant EGFR expressed on CHO cells (specificity control) (UniProt P00533 25-1210, limits assumed); assay: flow cytometry, MFI in cell binding to recombinant CHO cells; antigen EGFRTM anchored
# T5 construct: whole, on cells; also called control EGFR antigen
# [15] = target: Human CD16B^H140Y fused to IgG Fc (human) (UniProt O75015); assay: ELISA, coated antigen-IgG Fc
# [16] = target: T1, CD16A on primary human NK cells; assay: flow cytometry on primary human NK cells at 37 °C, without IgG; anti-His mAb and FITC goat anti-mouse IgG; remark: listed apart in the source
# Experimental: (§1) After the last staining step, the cells were washed again and resuspended in 0.2 mL of FACS buffer containing 2 μg/mL propidium iodide (PI) (Sigma, cat.: P4170) in order to exclude dead cells. […] For the calculation of KD, the equation for one-site-binding (hyperbola) was used.
# [17] = target: T2, mature ECD of CD16B(NA1) expressed on …; assay: binding to recombinant CHO cells
# [18] = target: T4, propeptide-containing ECD of CD16B(NA1) …; assay: binding to recombinant CHO cells
# [19] = target: T1, CD16A on primary human NK cells; assay: flow cytometry on primary human NK cells at 37 °C, without IgG; anti-His mAb and FITC goat anti-mouse IgG; remark: listed apart in the source
# Experimental: as §1
# [20] = target: Human CD16B(NA1)^pr fused to IgG Fc (human) (UniProt O75015); assay: ELISA, coated antigen-IgG Fc
# Chain of Human CD16B(NA1)^pr fused to IgG Fc (human) (O75015 other isoform, or with tags, fused parts or gaps limits assumed): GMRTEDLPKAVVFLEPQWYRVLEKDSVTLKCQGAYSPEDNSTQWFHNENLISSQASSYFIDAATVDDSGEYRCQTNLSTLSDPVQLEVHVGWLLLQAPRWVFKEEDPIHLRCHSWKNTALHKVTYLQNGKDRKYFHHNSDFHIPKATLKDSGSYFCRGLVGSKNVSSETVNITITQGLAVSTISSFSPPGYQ
# T2 sequence (O75015 other isoform, or with tags, fused parts or gaps): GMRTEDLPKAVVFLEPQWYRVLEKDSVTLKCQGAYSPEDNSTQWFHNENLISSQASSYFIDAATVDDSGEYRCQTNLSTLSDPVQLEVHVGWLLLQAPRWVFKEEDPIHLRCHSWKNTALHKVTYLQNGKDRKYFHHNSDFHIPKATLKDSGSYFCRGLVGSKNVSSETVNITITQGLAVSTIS
# Chain of human CD16A(48R, 158V) ECD fused to monomeric mFc.67 (human) (P08637 17-208 L66R/F176V): as the sequence (O75015 other isoform, or with tags, fused parts or gaps limits assumed) above, with N49S, L50R, V90I, D131G, H142Y, S187F counted along it
# Chain of Human CD16A^(48R, 158V) fused to IgG Fc (human) (P08637 17-208 L66R/F176V): as the sequence (O75015 other isoform, or with tags, fused parts or gaps limits assumed) above, with N49S, L50R, V90I, D131G, H142Y, S187F counted along it
# Chain of Cynomolgus CD16A fused to IgG Fc (cynomolgus; human) (Q8SPW2 17-208): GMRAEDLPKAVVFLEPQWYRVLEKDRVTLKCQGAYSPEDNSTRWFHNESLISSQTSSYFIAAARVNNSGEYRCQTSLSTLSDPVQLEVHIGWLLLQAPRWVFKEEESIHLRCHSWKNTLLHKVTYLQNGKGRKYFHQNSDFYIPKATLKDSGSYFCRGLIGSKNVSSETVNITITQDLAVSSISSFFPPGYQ
# T4 sequence (O75015 other isoform, or with tags, fused parts or gaps): as the sequence (O75015 other isoform, or with tags, fused parts or gaps limits assumed) above
# T1 sequence (P08637 17-254 limits assumed): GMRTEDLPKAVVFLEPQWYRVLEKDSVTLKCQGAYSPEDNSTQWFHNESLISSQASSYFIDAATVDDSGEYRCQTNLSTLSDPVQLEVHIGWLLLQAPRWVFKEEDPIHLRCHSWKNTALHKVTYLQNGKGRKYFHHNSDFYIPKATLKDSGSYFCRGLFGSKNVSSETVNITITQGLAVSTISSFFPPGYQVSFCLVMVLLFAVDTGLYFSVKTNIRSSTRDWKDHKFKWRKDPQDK
# Chain of Human CD16A^(48R, 158F) fused to IgG Fc (human) (P08637 17-208 L66R): as the sequence (O75015 other isoform, or with tags, fused parts or gaps limits assumed) above, with N49S, L50R, V90I, D131G, H142Y, V160F, S187F counted along it
# Chain of human CD16B ECD mutant H140Y fused to monomeric mFc.67 (human) (O75015 other isoform, or with tags, fused parts or gaps H140Y H140Y): as the sequence (O75015 other isoform, or with tags, fused parts or gaps limits assumed) above, with H142Y counted along it
# Chain of Human CD16B^H140Y fused to IgG Fc (human) (O75015 other isoform, or with tags, fused parts or gaps H140Y H140Y limits assumed): as the sequence (O75015 other isoform, or with tags, fused parts or gaps limits assumed) above, with H142Y counted along it
# T3 sequence (P08637 other isoform, or with tags, fused parts or gaps limits assumed): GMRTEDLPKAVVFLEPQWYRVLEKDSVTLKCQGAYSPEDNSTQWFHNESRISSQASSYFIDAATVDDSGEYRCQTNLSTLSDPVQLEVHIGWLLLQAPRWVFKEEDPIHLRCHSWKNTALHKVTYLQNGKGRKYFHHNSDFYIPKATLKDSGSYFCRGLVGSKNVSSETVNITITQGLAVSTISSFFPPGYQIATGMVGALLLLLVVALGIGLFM
EC50 [2] [nM],EC50 [4] [nM],EC50 [5] [nM],EC50 [6] [nM],EC50 [15] [nM],Molecule,further results
1,1.2,7.6,7.5,–,scFv antibody comprising the variable heavy and light chain sequences of antibody 3G8,EC50 [1]: 0.9 nM; EC50 (read off the curve) [3]: 20 nM; EC50 (read off the curve) [7]: 3 nM
0.6,–,–,–,–,EGFR-1/CD16-1 TandAb (CD16-1) (bispecific antibody) QVQLQESGPGLVKPSETLSLTCTVSGGSVSSGSYYWSWIRQPPGKGLEWIGYIYYSGSTNYNPSLKSRVTISVDTSKNQFSLKLSSVTAADTAVYYCARNPISIPAFDIWGQGTMVTVSSGGSGGSGGSSYVLTQPSSVSVAPGQTATISCGGHNIGSKNVHWYQQRPGQSPVLVIYQDNKRPSGIPERFSGSNSGNTATLTISGTQAMDEADYYCQVWDNYSVLFGGGTKLTVLGGSGGSQVQLVQSGAEVKKPGESLKVSCKASGYTFTSYYMHWVRQAPGQGLEWMGIINPSGGSTSYAQKFQGRVTMTRDTSTSTVYMELSSLRSEDTAVYYCARGSAYYYDFADYWGQGTLVTVSSGGSGGSGGSQPVLTQPPSVSVAPGKTARITCGGNNIGSKSVHWYQQKPGQAPVLVIYYDSDRPSGIPERFSGSNSGNTATLTISRVEAGDEADYYCQVWDTSSDHVLFGGGTKLTVLAAAGSHHHHHH,EC50 [11]: 0.5 nM
1.6,1.5,2.8,2.5,1.2,"scFv CD16A (CD16-2) (scFv, also called CD16-2 scFv) scFv: QVQLVQSGAEVKKPGESLKVSCKASGYTFTSYYMHWVRQAPGQGLEWMGAIEPMYGSTSYAQKFQGRVTMTRDTSTSTVYMELSSLRSEDTAVYYCARGSAYYYDFADYWGQGTLVTVSSGGSGGSGGSGGSGGSGGSSYVLTQPSSVSVAPGQTATISCGGHNIGSKNVHWYQQRPGQSPVLVIYQDNKRPSGIPERFSGSNSGNTATLTISGTQAMDEADYYCQVWDNYSVLFGGGTKLTVLAAAGSHHHHHH",EC50 (read off the curve) [19]: ~10 nM; EC50 [11]: 1.3 nM; EC50 (read off the curve) [3]: ~30 nM; binding result [14]: no binding; binding result [17]: no binding; binding result [18]: no binding

# More lines, now with the values behind:
Molecule,EC50 [2] [nM],EC50 [4] [nM],EC50 [5] [nM],EC50 [6] [nM],EC50 [15] [nM],further results
"EGFR-1 scFv (scFv, also called scFv EGFR (EGFR-1); control scFv) scFv: QVQLQESGPGLVKPSETLSLTCTVSGGSVSSGSYYWSWIRQPPGKGLEWIGYIYYSGSTNYNPSLKSRVTISVDTSKNQFSLKLSSVTAADTAVYYCARNPISIPAFDIWGQGTMVTVSSGGSGGSGGSGGSGGSGGSQPVLTQPPSVSVAPGKTARITCGGNNIGSKSVHWYQQKPGQAPVLVIYYDSDRPSGIPERFSGSNSGNTATLTISRVEAGDEADYYCQVWDTSSDHVLFGGGTKLTVLAAAGSHHHHHH",–,–,–,–,–,binding result [8]: no binding; binding result [9]: no binding; binding result [10]: no binding
BCMA-1/CD16-2 TandAb (CD16-2) (bispecific antibody) EVQLLESGGGLVQPGGSLRLSCAASGFTFSNYDMAWVRQAPGKGLEWVSSISTRGDITSYRDSVKGRFTISRDNSKNTLYLQMNSLRAEDTAVYYCARQDYYTDYMGFAYWGQGTLVTVSSGGSGGSGGSGGSSYVLTQPSSVSVAPGQTATISCGGHNIGSKNVHWYQQRPGQSPVLVIYQDNKRPSGIPERFSGSNSGNTATLTISGTQAMDEADYYCQVWDNYSVLFGGGTKLTVLGGSQVQLVQSGAEVKKPGESLKVSCKASGYTFTSYYMHWVRQAPGQGLEWMGAIEPMYGSTSYAQKFQGRVTMTRDTSTSTVYMELSSLRSEDTAVYYCARGSAYYYDFADYWGQGTLVTVSSGGSGGSGGSGGSAIQMTQSPSSLSASVGDRVTITCRASEDIYNGLAWYQQKPGKAPKLLIYGASSLQDGVPSRFSGSGSGTEFTLTISSLQPEDEATYYCAGPHKYPLTFGGGTKVEIK,–,–,–,–,–,EC50 [12]: 1.2 nM; EC50 [13]: 1.1 nM
"scFv CD16A (CD16-1) (scFv, also called LSIV21 scFv) scFv: QVQLVQSGAEVKKPGESLKVSCKASGYTFTSYYMHWVRQAPGQGLEWMGIINPSGGSTSYAQKFQGRVTMTRDTSTSTVYMELSSLRSEDTAVYYCARGSAYYYDFADYWGQGTLVTVSSGGSGGSGGSGGSGGSGGSSYVLTQPSSVSVAPGQTATISCGGHNIGSKNVHWYQQRPGQSPVLVIYQDNKRPSGIPERFSGSNSGNTATLTISGTQAMDEADYYCQVWDNYSVLFGGGTKLTVLAAAGSHHHHHH",–,14.4,25.7,16.2,9.5,binding result [14]: no binding; EC50 (read off the curve) [16]: ~40 nM; binding result [17]: no binding; binding result [18]: no binding
scFv CD16A (CD16-3) (scFv) scFv: QVQLVQSGAEVKKPGESLKVSCKASGYTFTNYYMQWVRQAPGQGLEWMGVINPGGGSTSYAQKFQGRVTMTRDTSTSTVYMELSSLRSEDTAVYYCARGSAYYYDFADYWGQGTLVTVSSGGSGGSGGSGGSGGSGGSSYVLTQPSSVSVAPGQTARITCGGHNIGSQSVHWYQQKPGQAPVLVIYQDSKRPSGIPERFSGSNSGNTATLTISGTQAMDEADYYCQVWDNYSVVFGGGTKLTVLAAAGSHHHHHH,–,1.2,1.2,1.4,1.3,–
scFv CD16A (CD16-5) (scFv) scFv: QVQLVQSGAEVKKPGESLKVSCKASGYTFSSYYMHWVRQAPGQGLEWMGAIEPRGVRISYAQKFQGRVTMTRDTSTSTVYMELSSLRSEDTAVYYCARGSAYYYDFADYWGQGTLVTVSSGGSGGSGGSGGSGGSGGSSYVLTQPSSVSVAPGQTARITCGGHNIGSTNVHWYQQKPGQAPVLVIYQDSKRPSGIPERFSGSNSGNTATLTISGTQAMDEADYYCQVWDNYSVQFGGGTKLTVLAAAGSHHHHHH,–,1.2,0.8,1.4,1.1,EC50 [20]: 24.9 nM
scFv CD16A (CD16-7) (scFv) scFv: QVQLVQSGAEVKKPGESLKVSCKASGYTFTNYYMHWVRQAPGQGLEWMGVIEPDGGRRTYAQKFQGRVTMTRDTSTSTVYMELSSLRSEDTAVYYCARGSAYYYDFADYWGQGTLVTVSSGGSGGSGGSGGSGGSGGSEIVLTQSPATLSLSPGERATLSCRGHQGVSGDVHWYQQKPGQAPRLLIYQANKRASGIPARFSGSGSGTEFTLTISSLEPEDFAVYYCQQWDNYSVTFGQGTKVEIKAAAGSHHHHHH,–,1.8,2.4,1.6,1.7,–
scFv CD16A (CD16-4) (scFv) scFv: QVQLVQSGAEVKKPGESLKVSCKASGYSFSDFYIQWVRQAPGQGLEWMGIINPGGASTTYAQKFQGRVTMTRDTSTSTVYMELSSLRSEDTAVYYCARGSAYYYDFADYWGQGTLVTVSSGGSGGSGGSGGSGGSGGSSYVLTQPSSVSVAPGQTARITCGGYNIGRQSVHWYQQKPGQAPVLVIYQDSKRPSGIPERFSGSNSGNTATLTISGTQAMDEADYYCQVWDNYTVVFGGGTKLTVLAAAGSHHHHHH,–,2.2,2.5,1.4,1.7,–
